From article PMC7460673, “Biochemical Characterization and Crystal Structure of a Novel NAD^+-Dependent Isocitrate Dehydrogenase from Phaeodactylum tricornutum” (International Journal of Molecular Sciences, 2020) come the findings set out here.

What is called stoichiometry N is the number of molecules, sites or subunits per partner or assembly. The Ki is the dissociation constant of the complex between target and ligand, obtained from inhibition or displacement. The low end stands for tighter binding, the high end for weaker binding. Broadly, the Km is the substrate concentration at which the rate is half of its maximum. One may read the kcat as the maximal rate divided by the concentration of active sites. As a reminder, the kcat/Km is the second-order rate constant that governs catalysis at low substrate concentration.

Data set [1] has as its target Phaeodactylum tricornutum isocitrate dehydrogenase 1, mature (without mitochondrial-targeting peptide) (Phaeodactylum tricornutum). Put plainly: SEC; Superdex 200 10/300 column calibrated with five standard proteins, 0.5 mL/min; 20 mM Tris, 300 mM NaCl, 5% glycerol, pH 7.5.
The target of data set [2] is T1, PtIDH1 (Phaeodactylum tricornutum, UniProt B7G620).
T1 construct: gene IDH1; hexamer also seen; C-terminal EF-hand domain
Briefly: spectrophotometric NADH formation at […] nm. The class given is biochemical. The note with it: read-out: Relative Activity (%) / PtIDH1.

The target in data set [3] is T1, PtIDH1. Put plainly: spectrophotometric NADH formation at […] nm. The data set is classed as biochemical.
Substrate in data set [4]: O=C(O)CC(C(=O)O)C(O)C(=O)O
Briefly: purified protein. The data set is classed as biochemical, Phaeodactylum tricornutum. The note with it: 2 mM Mn2+, NAD+, 50 mM Tris pH 8.0, 25 °C, varied as DL-isocitrate, cooperative, nH 1.43.

Substrate in data set [5]: NC(=O)c1ccc[n+]([C@@H]2O[C@H](COP(=O)([O-])OP(=O)(O)OC[C@H]3O[C@@H](n4cnc5c(N)ncnc54)[C@H](O)[C@@H]3O)[C@@H](O)[C@H]2O)c1
Put plainly: purified protein. The class given is biochemical, Phaeodactylum tricornutum. The note with it: 2 mM Mn2+, DL-isocitrate, 50 mM Tris pH 8.0, 25 °C, varied: cofactor.

Where “and” joins values, the source holds several entries; their conditions need not be identical. Equal values may be shown once.

Take “Phaeodactylum tricornutum isocitrate dehydrogenase 1, mature (without mitochondrial-targeting peptide) (enzyme)”: in data set [1], the stoichiometry N was 2 and 6. As for `Nc1ncnc2c1ncn2[C@@H]1O[C@H](COP(=O)(O)OP(=O)(O)O)[C@@H](O)[C@H]1O` [ADP], the activity at 1000 µM on PtIDH1 [2] stood at 86.63 ± 0.2%. The same measure, in the same setting: then `Nc1ncnc2c1ncn2[C@@H]1O[C@H](COP(=O)(O)OP(=O)(O)OP(=O)(O)O)[C@@H](O)[C@H]1O` [ATP], with 88.7 ± 0.8%. `NC(=O)C1=CN([C@@H]2O[C@H](COP(=O)(O)OP(=O)(O)OC[C@H]3O[C@@H](n4cnc5c(N)ncnc54)[C@H](O)[C@@H]3O)[C@@H](O)[C@H]2O)C=CC1` [NADH]: at PtIDH1 [3], the Ki stood at 450 ± 80 µM.

B1: PtIDH1 (Phaeodactylum tricornutum CCAP 1055/1) (protein)
chain: MLSVENKVVAPPMVYIAGEEMTRYACDLVVKSWLEPYFDLSQWEYFDLSCVNRDNTNDQVLRDAVTAGQRIGAIFKEPTITPSAIQKKAFGLKNSLGSPNGAMRAGWNGITISRDTIHIDGIELGYKRPVFFERHAVGGEYGAGWSKVGRGTLLTTYLPSDGRDPFVVDKRDLTDQHNVVVTYHNPYDNVEPLAHLFFQRCLDANITPYVVTKKTVFKWQEGFWAVMKDVFDEHYKSRFEEKGLLQACGGDLQHLISDAATMQLIRWTDGGFGMAAHNYDGDMLTDQIAQVHRSPGFITSNLVGKAPDGSLIKEFEASHGTVSDLWNDHLAGKETSLNPLGLVEAIVGALQHAAVLDAEKNPDDEHKVKARDQIFNFTTTLRTAMHNTFRYGQGTRDMSGPSGYTTEDFVRKVAWRLQRYLDAQYDEAPPPQLGEPSRKLRRNYDIDEEAINGLFQKYDKNGDGFIDFEEFTRMLVKMNLAPLLTKKEKEKKPDV
notes: hexamer also seen; C-terminal EF-hand domain
With B1, the K0.5 in the data set “purified protein [4]” worked out at 84.9 ± 5.2 µM. Further, in “purified protein [5]”, the Km was determined as 1132.5 ± 23.3 µM, the kcat stood at 180.5 ± 6.8 s⁻¹ and the kcat/Km was determined as 160000 M⁻¹ s⁻¹.
